Columns and labels:
Conditions in all cases: remark: other sources report otherwise
[1] = biological target: human MS4A4A (human), Q96JQ5; assay: functional affinity, FACS titration on stably transfected 300.19 cells
[2] = biological target: human MS4A4A (human), Q96JQ5; assay: flow cytometry (anti-mouse IgG Fc-APC) on U937 cells transfected with human MS4A4A (Plate B); untransfected U937 cells (Plate A): mean 313
[3] = biological target: human MS4A4A (human), Q96JQ5; assay: flow cytometry (anti-mouse IgG Fc-APC) on 300.19 cells transfected with human MS4A4A (Plate D); untransfected 300.19 cells (Plate C): mean 122

B1: anti-MS4A4A antibody 4A-21 (murine) (antibody, IgG1, V domains shown)
VH: QIQLVQSGPELKKPGETVKISCKASGYIFTSYGLSWVKQTPGKGLKWMGWINTYSGVPTYANDFKGRFAFSLETSASTTYLRINNLKNDDTATYFCARSLVDYWGQGTPLTVSS
VL: not shown
B1 was tested, and the Kd [1] was 14 nM, the Mean : APC-A [2] was 7370 and the Mean : APC-A [3] was 3600.

B2: anti-MS4A4A antibody 4A-21, huIgG1 chimera (antibody, V domains shown)
VH: B1 VH
VL: not shown
B2 gave a Kd [1] of 8.7 nM.
